Results from US10562947B2, “Compositions and methods for preventing or treating diseases, conditions or processes characterized by aberrant fibroblast proliferation and extracellular matrix deposition” (MOERAE MATRIX, INC., priority 2011, dated 2020).

Columns and labels:
Test in all cases: Kinase Profiling Assay
Format in all cases: biochemical
Settings in all cases: 100 μM peptide
[1] = target: Abl(H396P)(h) (Homo sapiens, UniProt P00519, H396P)
Summary of the method: (§1)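 Selectivity profiling: MK2-targeting peptides tested on 266 human kinases. All activity determinations done in duplicate.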

[2] = target: T1, HIPK3(h) (Homo sapiens, UniProt Q9H422)
T1 construct: purchased Millipore
Summary of the method: as §1

[3] = target: PAK3(h) (Homo sapiens, UniProt O75914)
Summary of the method: as §1

[4] = target: Abl(M351T)(h) (Homo sapiens, UniProt P00519, M351T)
Summary of the method: as §1

[5] = target: CK1γ3(h) (Homo sapiens, UniProt Q9Y6M4)
Summary of the method: as §1

[6] = target: EGFR(T790M)(h) (Homo sapiens, UniProt P00533, T790M)
Summary of the method: as §1

[7] = target: T2, MKK7β(h) (Homo sapiens, UniProt O14733)
T2 sequence (O14733 1-419): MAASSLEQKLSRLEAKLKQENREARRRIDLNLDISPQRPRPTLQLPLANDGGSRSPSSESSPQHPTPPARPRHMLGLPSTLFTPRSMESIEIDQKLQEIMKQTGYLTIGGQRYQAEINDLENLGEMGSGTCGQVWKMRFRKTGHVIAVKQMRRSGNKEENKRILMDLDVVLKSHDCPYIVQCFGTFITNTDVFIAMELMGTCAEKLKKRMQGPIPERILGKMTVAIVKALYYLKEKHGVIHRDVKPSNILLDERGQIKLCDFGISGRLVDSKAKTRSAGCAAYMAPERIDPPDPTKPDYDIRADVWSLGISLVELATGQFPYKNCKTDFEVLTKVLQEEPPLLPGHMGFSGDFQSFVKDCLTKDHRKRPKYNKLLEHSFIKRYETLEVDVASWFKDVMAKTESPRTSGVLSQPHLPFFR
Summary of the method: as §1

[8] = target: PAR-1Bα(h) (Homo sapiens, UniProt Q7KZI7)
Summary of the method: as §1

[9] = target: PKA(h) (Homo sapiens, UniProt P17612)
Summary of the method: as §1

[10] = target: PDGFRα(D842V)(h) (Homo sapiens, UniProt P16234, D842V)
Summary of the method: as §1

[11] = target: cKit(V560G)(h) (Homo sapiens, UniProt P10721, V560G)
Summary of the method: as §1

[12] = target: MRCKα(h) (Homo sapiens, UniProt Q5VT25)
Summary of the method: as §1

[13] = target: T3, JAK3(h) (Homo sapiens, UniProt P52333)
T3 construct: purchased Millipore
T3 sequence (P52333 1-1124): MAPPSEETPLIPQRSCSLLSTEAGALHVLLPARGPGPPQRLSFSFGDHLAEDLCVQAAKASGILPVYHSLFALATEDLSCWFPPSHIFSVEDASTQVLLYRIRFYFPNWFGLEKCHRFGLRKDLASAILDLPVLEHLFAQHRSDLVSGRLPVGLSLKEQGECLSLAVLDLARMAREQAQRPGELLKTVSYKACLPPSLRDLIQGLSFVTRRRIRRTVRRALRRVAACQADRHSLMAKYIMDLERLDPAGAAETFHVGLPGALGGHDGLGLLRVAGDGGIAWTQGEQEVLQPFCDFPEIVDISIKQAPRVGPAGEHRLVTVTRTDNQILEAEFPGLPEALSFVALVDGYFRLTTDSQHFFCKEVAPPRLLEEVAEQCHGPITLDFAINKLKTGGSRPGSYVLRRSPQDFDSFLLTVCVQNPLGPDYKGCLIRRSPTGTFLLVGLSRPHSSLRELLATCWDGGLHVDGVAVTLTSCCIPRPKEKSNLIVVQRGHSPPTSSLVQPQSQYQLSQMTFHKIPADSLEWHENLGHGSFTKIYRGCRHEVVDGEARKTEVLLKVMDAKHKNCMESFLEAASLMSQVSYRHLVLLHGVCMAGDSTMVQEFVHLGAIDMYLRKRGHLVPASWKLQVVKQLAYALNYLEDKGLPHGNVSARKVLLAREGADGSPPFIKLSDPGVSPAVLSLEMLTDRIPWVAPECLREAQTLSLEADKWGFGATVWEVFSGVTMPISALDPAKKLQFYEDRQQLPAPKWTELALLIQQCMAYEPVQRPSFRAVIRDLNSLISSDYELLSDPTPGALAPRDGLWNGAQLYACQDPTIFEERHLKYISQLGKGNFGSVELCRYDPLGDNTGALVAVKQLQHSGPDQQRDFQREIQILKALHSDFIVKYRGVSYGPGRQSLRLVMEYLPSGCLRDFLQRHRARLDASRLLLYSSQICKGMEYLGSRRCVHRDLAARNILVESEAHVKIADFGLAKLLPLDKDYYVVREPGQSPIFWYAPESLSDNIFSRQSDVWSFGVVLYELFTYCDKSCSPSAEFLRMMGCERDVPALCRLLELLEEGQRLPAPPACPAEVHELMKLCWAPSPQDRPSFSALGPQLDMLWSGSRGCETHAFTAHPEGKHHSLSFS
Summary of the method: as §1

[14] = target: Snk(h) (Homo sapiens, UniProt Q9NYY3)
Summary of the method: as §1

[15] = target: MAPK1(h) (Homo sapiens, UniProt P27361)
Summary of the method: as §1

[16] = target: CK2α2(h) (Homo sapiens, UniProt P19784)
Summary of the method: as §1

[17] = target: T4, IGF-1R(h) (Homo sapiens, UniProt P08069)
T4 construct: purchased Millipore
Summary of the method: as §1

[18] = target: T5, GRK5(h) (Homo sapiens, UniProt P34947)
T5 construct: purchased Millipore
Summary of the method: as §1

Chain of CK1γ3(h) (Q9Y6M4 whole entry): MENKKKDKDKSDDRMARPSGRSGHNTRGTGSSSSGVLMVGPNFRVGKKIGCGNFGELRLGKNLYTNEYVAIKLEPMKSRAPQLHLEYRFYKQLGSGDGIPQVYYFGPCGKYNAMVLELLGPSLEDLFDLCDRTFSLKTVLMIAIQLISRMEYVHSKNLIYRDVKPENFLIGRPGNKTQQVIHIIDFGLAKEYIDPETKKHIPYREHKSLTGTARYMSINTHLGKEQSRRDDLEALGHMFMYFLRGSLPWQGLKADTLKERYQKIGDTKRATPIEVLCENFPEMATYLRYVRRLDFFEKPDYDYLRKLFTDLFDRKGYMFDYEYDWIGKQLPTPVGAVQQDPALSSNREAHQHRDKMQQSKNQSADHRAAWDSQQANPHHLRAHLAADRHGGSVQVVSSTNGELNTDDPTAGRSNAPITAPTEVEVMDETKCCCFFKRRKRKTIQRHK
Chain of MAPK1(h) (P27361 whole entry): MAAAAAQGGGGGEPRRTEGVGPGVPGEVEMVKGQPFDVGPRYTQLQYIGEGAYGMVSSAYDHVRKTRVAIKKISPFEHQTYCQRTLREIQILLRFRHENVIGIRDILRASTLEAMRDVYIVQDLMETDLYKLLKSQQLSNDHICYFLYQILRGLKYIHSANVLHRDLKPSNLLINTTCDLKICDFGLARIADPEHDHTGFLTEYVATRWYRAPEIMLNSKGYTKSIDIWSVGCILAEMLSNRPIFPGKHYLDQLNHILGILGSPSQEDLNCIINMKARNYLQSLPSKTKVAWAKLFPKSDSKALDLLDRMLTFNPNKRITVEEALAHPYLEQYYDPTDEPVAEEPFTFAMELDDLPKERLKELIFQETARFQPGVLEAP
Chain of PAR-1Bα(h) (Q7KZI7 1-725 isoform Q7KZI7-4): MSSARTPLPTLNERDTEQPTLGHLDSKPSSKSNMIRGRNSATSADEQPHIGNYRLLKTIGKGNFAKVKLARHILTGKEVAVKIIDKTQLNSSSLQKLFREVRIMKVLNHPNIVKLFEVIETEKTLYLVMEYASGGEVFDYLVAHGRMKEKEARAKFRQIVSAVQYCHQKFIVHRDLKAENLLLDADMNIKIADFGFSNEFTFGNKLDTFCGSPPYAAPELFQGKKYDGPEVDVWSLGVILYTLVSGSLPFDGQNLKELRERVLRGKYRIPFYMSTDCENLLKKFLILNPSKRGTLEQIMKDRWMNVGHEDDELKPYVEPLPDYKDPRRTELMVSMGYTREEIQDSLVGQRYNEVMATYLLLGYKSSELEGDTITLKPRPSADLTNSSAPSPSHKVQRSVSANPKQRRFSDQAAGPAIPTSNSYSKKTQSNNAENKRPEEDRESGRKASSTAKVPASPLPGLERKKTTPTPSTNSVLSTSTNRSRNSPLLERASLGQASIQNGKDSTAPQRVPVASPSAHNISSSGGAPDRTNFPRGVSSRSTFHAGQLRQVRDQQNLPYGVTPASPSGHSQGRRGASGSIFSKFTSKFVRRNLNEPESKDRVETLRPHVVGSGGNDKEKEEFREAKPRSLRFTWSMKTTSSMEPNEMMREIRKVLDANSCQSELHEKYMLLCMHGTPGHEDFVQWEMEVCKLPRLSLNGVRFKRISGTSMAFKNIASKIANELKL
T1 sequence (Q9H422 whole entry): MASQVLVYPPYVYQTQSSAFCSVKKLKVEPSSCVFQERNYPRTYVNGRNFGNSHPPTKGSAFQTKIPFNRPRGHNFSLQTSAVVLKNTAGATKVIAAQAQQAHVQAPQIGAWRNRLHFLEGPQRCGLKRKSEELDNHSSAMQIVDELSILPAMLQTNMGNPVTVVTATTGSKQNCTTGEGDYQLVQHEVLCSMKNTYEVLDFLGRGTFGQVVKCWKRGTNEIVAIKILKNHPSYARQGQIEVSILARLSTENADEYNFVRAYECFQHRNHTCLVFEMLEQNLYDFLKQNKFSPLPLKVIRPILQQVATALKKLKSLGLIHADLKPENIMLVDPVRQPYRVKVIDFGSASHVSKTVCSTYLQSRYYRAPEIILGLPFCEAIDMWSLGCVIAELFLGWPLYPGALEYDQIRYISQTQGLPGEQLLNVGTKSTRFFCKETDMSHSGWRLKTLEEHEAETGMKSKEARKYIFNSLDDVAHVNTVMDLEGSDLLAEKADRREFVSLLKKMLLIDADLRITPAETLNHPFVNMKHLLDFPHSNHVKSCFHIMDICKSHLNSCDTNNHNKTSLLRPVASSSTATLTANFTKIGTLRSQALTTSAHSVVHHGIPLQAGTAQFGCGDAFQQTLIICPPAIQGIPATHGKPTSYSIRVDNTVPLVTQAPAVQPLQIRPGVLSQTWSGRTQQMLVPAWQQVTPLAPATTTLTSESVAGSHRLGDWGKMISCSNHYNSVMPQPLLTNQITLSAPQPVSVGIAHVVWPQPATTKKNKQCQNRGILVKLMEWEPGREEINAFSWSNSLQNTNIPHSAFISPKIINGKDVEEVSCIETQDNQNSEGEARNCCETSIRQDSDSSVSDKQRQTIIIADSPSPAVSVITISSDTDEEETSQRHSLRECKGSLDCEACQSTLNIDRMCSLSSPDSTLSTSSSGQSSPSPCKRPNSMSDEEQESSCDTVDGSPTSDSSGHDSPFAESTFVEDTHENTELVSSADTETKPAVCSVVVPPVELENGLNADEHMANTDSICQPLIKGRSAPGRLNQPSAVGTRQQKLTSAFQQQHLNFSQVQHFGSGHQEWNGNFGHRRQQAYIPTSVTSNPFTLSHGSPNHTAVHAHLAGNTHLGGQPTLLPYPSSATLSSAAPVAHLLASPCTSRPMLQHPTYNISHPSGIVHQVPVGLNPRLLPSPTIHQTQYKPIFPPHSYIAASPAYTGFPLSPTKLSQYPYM
Chain of MRCKα(h) (Q5VT25 whole entry): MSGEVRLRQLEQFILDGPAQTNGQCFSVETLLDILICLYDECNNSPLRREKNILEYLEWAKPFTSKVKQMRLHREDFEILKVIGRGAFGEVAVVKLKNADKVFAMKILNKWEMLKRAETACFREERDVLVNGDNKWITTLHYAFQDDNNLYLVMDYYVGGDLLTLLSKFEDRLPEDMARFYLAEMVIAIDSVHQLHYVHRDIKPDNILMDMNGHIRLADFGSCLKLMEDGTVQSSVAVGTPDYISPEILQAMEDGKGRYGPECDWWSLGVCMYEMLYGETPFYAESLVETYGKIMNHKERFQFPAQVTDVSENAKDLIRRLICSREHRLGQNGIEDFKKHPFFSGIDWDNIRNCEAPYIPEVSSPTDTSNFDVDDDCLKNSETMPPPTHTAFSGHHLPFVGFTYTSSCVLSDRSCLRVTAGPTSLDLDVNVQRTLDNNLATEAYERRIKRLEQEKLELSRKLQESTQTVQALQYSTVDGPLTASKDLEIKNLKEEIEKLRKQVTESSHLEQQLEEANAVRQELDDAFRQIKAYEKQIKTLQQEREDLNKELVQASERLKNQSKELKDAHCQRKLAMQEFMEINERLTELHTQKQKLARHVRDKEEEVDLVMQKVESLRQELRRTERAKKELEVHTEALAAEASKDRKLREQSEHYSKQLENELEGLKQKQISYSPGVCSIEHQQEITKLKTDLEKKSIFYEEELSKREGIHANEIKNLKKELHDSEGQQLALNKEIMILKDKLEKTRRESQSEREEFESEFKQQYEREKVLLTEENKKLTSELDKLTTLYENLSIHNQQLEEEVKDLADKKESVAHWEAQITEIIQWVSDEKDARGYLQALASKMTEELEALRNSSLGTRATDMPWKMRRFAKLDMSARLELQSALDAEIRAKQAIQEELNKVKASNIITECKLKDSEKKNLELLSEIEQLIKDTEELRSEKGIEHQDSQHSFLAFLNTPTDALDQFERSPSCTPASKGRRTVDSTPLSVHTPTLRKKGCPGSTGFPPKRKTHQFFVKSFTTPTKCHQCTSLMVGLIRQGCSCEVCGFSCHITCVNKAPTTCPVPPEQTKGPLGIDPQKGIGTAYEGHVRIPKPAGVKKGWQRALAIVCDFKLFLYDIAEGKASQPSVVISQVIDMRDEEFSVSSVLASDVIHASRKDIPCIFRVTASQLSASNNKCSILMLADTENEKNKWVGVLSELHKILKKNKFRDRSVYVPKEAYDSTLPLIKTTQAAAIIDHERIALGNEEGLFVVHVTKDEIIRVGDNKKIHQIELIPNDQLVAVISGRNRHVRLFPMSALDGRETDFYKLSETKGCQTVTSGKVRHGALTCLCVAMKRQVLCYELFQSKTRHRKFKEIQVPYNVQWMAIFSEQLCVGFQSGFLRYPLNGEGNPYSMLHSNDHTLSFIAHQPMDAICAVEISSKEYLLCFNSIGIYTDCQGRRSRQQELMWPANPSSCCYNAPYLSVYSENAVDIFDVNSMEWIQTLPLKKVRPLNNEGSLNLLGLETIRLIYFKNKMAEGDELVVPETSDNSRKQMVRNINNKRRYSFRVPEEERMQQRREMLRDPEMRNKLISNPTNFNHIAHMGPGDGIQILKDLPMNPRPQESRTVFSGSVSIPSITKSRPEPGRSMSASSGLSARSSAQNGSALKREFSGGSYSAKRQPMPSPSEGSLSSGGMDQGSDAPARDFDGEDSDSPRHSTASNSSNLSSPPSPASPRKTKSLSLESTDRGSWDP
T5 sequence (P34947 whole entry): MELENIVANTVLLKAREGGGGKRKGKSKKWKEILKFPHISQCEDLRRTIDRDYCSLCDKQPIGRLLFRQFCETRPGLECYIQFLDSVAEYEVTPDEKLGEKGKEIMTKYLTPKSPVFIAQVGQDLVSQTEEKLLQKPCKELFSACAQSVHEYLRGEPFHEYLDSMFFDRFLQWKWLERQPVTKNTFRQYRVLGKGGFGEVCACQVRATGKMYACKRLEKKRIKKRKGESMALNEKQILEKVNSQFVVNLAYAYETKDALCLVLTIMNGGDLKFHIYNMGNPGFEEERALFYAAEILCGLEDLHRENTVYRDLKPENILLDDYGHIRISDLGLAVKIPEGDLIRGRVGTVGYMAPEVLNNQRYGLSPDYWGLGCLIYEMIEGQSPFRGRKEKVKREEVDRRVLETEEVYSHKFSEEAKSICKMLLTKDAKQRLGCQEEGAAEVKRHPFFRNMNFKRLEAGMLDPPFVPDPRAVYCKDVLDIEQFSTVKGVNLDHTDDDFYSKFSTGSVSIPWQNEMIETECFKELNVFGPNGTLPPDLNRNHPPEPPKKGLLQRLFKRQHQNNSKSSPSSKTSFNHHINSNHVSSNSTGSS

Sequence	Abl(H396P)(h) % activity [1]	HIPK3(h) % activity [2]	PAK3(h) % activity [3]	Abl(M351T)(h) % activity [4]	CK1γ3(h) % activity [5]	EGFR(T790M)(h) % activity [6]	MKK7β(h) % activity [7]	PAR-1Bα(h) % activity [8]	PKA(h) % activity [9]	PDGFRα(D842V)(h) % activity [10]	cKit(V560G)(h) % activity [11]	MRCKα(h) % activity [12]	JAK3(h) % activity [13]	Snk(h) % activity [14]	MAPK1(h) % activity [15]	CK2α2(h) % activity [16]	IGF-1R(h) % activity [17]	GRK5(h) % activity [18]
FAKLAARLYRKALARQLGVAA [MMI-0300]	101%	93%	140%	90%	125%	100%	100%											
HRRIKAWLKKIKALARQLGVAA (Mammalian) [MMI-0500]	51%	85%		61%		70%		97%	118%	170%	198%	5%	95%	122%				
KAFAKLAARLYRKALARQLGVAA [MMI-0400]							94%			118%	124%	97%	122%	131%	100%	96%	90%	131%
YARAAARQARAKALNRQLGVA (Mammalian) [MMI-0200]			50%		96%			110%	110%						97%	88%	49%	135%
